1 substance from patent US20100093618A1 can be followed below.

The target in the assay is FLAG-Tat (p3XFLAG-CMV-Tat, wild type) (HIV-1) (UniProt P04608). Kind of assay: cell-based or functional assay.

Substance “HA-IκB-α 72-287 (pCMV4-HA-IκB-α 72-287, expressed in transfected cells) (from UniProt P25963 72-287)” displayed a translocation of Tat from the nucleus to the cytoplasm (confocal microscopy, HeLa cells) (% of the analyzed cells) of 50.
